Earlier results on three substances are cited in PMC8619967.

Read-outs that look alike come from different tables or passages of the source.

Series [1] concerns the target HIV-1 capsid (Human immunodeficiency virus 1) (UniProt O93182).
The target in series [2] is HIV-1 CA-NC nanotubes CA-NC (Human immunodeficiency virus 1) (UniProt O93182).
Series [3] deals with HIV-1 capsid (Human immunodeficiency virus 1) (UniProt O93182). The source holds these as a separate data set.
HIV-1 capsid (Human immunodeficiency virus 1), sequence (O93182 133-363): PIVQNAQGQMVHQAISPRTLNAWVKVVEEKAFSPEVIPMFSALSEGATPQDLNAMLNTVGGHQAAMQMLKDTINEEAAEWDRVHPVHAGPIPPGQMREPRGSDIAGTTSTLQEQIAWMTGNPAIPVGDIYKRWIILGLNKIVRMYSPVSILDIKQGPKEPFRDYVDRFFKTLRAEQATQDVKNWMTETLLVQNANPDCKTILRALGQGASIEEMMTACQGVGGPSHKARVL

TRN-1, sequence (Q92973 whole entry): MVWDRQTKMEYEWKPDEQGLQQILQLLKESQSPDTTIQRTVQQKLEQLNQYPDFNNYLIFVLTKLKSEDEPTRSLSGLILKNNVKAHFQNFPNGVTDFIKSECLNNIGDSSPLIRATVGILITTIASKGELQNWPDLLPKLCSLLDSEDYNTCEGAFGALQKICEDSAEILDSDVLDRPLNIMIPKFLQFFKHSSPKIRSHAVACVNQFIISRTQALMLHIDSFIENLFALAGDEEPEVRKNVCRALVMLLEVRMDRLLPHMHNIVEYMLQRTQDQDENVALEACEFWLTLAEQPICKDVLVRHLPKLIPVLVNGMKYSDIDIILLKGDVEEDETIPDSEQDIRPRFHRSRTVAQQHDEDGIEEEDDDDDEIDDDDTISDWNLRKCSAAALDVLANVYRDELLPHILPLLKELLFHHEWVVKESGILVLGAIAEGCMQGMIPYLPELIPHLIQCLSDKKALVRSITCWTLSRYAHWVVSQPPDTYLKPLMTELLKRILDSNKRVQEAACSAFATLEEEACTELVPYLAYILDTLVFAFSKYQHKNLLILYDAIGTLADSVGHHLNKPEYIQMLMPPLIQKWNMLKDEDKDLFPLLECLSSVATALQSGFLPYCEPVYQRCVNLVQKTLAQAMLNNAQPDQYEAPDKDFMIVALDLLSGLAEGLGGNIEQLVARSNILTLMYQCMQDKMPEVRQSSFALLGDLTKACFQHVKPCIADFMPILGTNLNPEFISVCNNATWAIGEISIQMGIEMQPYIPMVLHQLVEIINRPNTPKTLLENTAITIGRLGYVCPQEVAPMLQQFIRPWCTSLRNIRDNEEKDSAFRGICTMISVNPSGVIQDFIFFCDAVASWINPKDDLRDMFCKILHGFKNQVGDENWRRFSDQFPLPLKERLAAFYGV
HIV-1 CA-NC nanotubes CA-NC (Human immunodeficiency virus 1), sequence (O93182 133-433): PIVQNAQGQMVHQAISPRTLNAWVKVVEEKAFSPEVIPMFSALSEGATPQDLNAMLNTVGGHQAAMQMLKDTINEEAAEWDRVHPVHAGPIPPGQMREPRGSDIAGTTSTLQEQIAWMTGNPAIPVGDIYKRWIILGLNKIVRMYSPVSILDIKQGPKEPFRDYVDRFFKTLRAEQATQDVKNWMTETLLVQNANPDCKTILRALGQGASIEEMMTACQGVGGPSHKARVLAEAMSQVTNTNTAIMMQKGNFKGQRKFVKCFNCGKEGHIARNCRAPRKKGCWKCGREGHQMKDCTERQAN
NUP358 CycH, sequence (P49792 3067-3223): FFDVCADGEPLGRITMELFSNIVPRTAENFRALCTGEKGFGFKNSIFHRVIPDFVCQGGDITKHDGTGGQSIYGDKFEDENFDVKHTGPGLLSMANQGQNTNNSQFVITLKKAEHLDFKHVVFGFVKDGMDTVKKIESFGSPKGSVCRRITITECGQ

Take NUP153 FG-motif (from UniProt P49790): the Kd – broadly, the equilibrium constant for the complex coming apart – in series [1] is 50 µM.
As for TRN-1 (from UniProt Q92973), the dissociation constant (Kd) in series [2] was 0.07 µM.
Regarding NUP358 CycH (from UniProt P49792), in series [3], the Kd is 200 µM.
